Test results taken from publication PMC7406630, “A new ^68Ga-labeled somatostatin analog containing two iodo-amino acids for dual somatostatin receptor subtype 2 and 5 targeting” (EJNMMI Research, 2020).
Read-outs that look alike come from different tables or passages of the source.

Tests used:
[1] = target: T1, human SST2 (Homo sapiens, UniProt P30874); experiment: cAMP accumulation experiments on HEK-SST2 cells (agonistic potency); type: cell-based; settings: for EC50: read-out: SST2 EC50, nM (95% CI), cAMP, HEK-SST2 cells, 3 to 4 sessions in duplicate
T1 construct: expressed in transfected cells; host or cells: HEK293 (HEK-SST2)
Description: (§3) Human Embryonic Kidney (HEK293) cells (a kind gift from Dr. A. Mühlethaler-Mottet, Pediatric Hematology-Oncology Unit, Lausanne University Hospital, Switzerland) were stably transfected with plasmids encoding the human SST2 and SST5 (HEK-SST2 and HEK-SST5) and cultivated as previously described [25]. Non-transfected HEK cells were used as a negative control.
(§4) cAMP accumulation experiments on HEK-SST2 and HEK-SST5 cells were performed with cAMP direct immunoassay kit (colorimetric, K371, BioVision) as described previously [25].

[2] = target: T1, human SST2; experiment: Competition binding assay on HEK-SST2 cells with ^125I-labeled SS-14; settings: read-out: SST2 IC50, nM (95% CI), ^125I-SS-14 radioligand, 3 to 5 sessions in duplicate
Description: (§1) Human Embryonic Kidney (HEK293) cells (a kind gift from Dr. A. Mühlethaler-Mottet, Pediatric Hematology-Oncology Unit, Lausanne University Hospital, Switzerland) were stably transfected with plasmids encoding the human SST2 and SST5 (HEK-SST2 and HEK-SST5) and cultivated as previously described. Non-transfected HEK cells were used as a negative control.
(§2) Binding assays were performed as described previously.

[3] = test system: SST5; parameters: method as in PMID 25918675; settings: cited from earlier work
[4] = target: T2, human SST5 (Homo sapiens, UniProt P35346); experiment: cAMP accumulation experiments on HEK-SST5 cells (agonistic potency); type: cell-based; settings: read-out: SST5 EC50, nM (95% CI), 3 to 4 sessions in duplicate
T2 construct: expressed in transfected cells; host or cells: HEK293 (HEK-SST5)
Description: as §3, §4

[5] = in vivo; settings: female, mouse, 100 pmol, total radioactivity
[6] = in vivo; settings: female, mouse, 100 pmol, total radioactivity; remark: listed apart in the source
[7] = type: physicochemical; settings: pH 7.4
Description: To a pre-saturated mixture of 500 μL n-octanol and 500 μL of phosphate-buffered saline (PBS) at pH 7.4, 10 μL of 1 μM of ^67Ga-labeled conjugates was added. The solutions were vortexed for 1 h to reach equilibrium and then centrifuged (3000 rpm) for 10 min. From each phase, 100 μL was removed and measured in a γ-counter. The partition coefficient was calculated as the average of the logarithmic values (n = 3) of the ratio between the radioactivity in the organic and the PBS phase.

[8] = test system: SST2; parameters: method as in PMID 10774879; settings: cited from earlier work
[9] = in vivo; cited from earlier work
[10] = test system: SST5; parameters: method as in PMID 10774879; settings: cited from earlier work
[11] = target: T2, human SST5; parameters: method as in PMID 29523357; settings: read-out: SST5 EC50, nM (95% CI); cAMP, HEK-SST5 cells; cited from earlier work
[12] = target: T2, human SST5; parameters: method as in PMID 29523357; settings: read-out: SST5 IC50, nM (95% CI); HEK-SST5 cells, ^125I-SS-14 radioligand; published earlier but measured head-to-head; cited from earlier work
[13] = target: T1, human SST2; parameters: method as in PMID 29523357; settings: read-out: SST2 IC50, nM (95% CI); HEK-SST2 cells, ^125I-SS-14 radioligand; published earlier but measured head-to-head; cited from earlier work
[14] = target: T1, human SST2; parameters: method as in PMID 29523357; settings: read-out: SST2 EC50, nM (95% CI); cAMP, HEK-SST2 cells; cited from earlier work
[15] = target: T2, human SST5; experiment: Competition binding assay on HEK-SST5 cells with ^125I-labeled SS-14; settings: read-out: SST5 IC50, nM (95% CI), ^125I-SS-14 radioligand, 3 to 5 sessions in duplicate
Description: as §1, §2

[16] = athymic Nude-Foxn1^nu/Foxn1^+, Intestine uptake
[17] = athymic Nude-Foxn1^nu/Foxn1^+, Liver uptake
[18] = athymic Nude-Foxn1nu/Foxn1+, Pancreas uptake
[19] = athymic Nude-Foxn1^nu/Foxn1^+, Adrenal uptake
[20] = athymic Nude-Foxn1^nu/Foxn1^+, Blood uptake
[21] = athymic Nude-Foxn1^nu/Foxn1^+, Femur uptake
[22] = athymic Nude-Foxn1^nu/Foxn1^+, Heart uptake
[23] = athymic Nude-Foxn1^nu/Foxn1^+, Kidney uptake
[24] = athymic Nude-Foxn1^nu/Foxn1^+, Lung uptake
[25] = athymic Nude-Foxn1^nu/Foxn1^+, Muscle uptake
[26] = athymic Nude-Foxn1^nu/Foxn1^+, Pancreas uptake
[27] = athymic Nude-Foxn1^nu/Foxn1^+, Pituitary uptake
[28] = athymic Nude-Foxn1^nu/Foxn1^+, SST2 tumor uptake
[29] = athymic Nude-Foxn1^nu/Foxn1^+, SST5 tumor uptake
[30] = athymic Nude-Foxn1^nu/Foxn1^+, Stomach uptake
[31] = athymic Nude-Foxn1nu/Foxn1+, Spleen uptake

T1 sequence (P30874 whole entry): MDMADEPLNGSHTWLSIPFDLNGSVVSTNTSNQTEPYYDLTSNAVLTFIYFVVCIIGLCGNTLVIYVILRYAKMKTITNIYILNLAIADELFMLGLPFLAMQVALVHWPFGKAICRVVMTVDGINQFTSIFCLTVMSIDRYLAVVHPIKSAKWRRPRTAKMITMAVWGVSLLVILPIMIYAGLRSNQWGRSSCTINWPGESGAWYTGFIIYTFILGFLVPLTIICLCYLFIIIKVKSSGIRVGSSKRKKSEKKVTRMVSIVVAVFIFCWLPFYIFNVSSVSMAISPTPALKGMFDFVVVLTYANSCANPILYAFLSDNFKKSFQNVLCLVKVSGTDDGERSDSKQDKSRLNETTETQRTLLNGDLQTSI
T2 sequence (P35346 whole entry): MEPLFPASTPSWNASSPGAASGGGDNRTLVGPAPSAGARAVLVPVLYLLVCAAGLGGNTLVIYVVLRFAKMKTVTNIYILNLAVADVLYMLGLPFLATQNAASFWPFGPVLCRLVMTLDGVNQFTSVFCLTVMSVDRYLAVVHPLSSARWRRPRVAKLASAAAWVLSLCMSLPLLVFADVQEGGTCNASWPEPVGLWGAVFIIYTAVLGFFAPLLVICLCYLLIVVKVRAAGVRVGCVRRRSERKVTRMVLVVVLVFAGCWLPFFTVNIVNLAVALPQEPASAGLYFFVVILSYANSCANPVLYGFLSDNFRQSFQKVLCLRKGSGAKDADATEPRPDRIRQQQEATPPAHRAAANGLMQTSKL

CC(C)[C@@H]1NC(=O)[C@H](CCCCN)NC(=O)[C@@H](Cc2c[nH]c3ccccc23)NC(=O)[C@H](Cc2ccc(O)c(I)c2)NC(=O)[C@@H](NC(=O)[C@@H](Cc2ccc(N)c(I)c2)NC(=O)CN2CCN(CC(=O)O)CCN(CC(=O)O)CCN(CC(=O)O)CC2)CSSC[C@@H](C(=O)N[C@H](C(N)=O)[C@@H](C)O)NC1=O [^natGa-DOTA-ST8950, metal not drawn]
Factor of reduction of agonistic potency for SST2 vs ST8950 ([1]; after ^natGa-DOTA conjugation): 1.6 | EC50 [1]: 0.46 nM | IC50 [2]: 0.32 nM

C[C@@H](O)[C@H](NC(=O)[C@@H]1CSSC[C@H](NC(=O)[C@@H](Cc2ccccc2)NC(=O)CN2CCN(CC(=O)O)CCN(CC(=O)O)CCN(CC(=O)O)CC2)C(=O)N[C@@H](Cc2ccc(O)cc2)C(=O)N[C@H](Cc2c[nH]c3ccccc23)C(=O)N[C@@H](CCCCN)C(=O)N[C@@H]([C@@H](C)O)C(=O)N1)C(=O)O [^natGa-DOTA-TATE, metal not drawn]
IC50 [3]: > 1000 nM | EC50 [4]: 39 nM

CC(C)[C@@H]1NC(=O)[C@H](CCCCN)NC(=O)[C@@H](Cc2c[nH]c3ccccc23)NC(=O)[C@H](Cc2ccc(O)c(I)c2)NC(=O)[C@@H](NC(=O)[C@@H](Cc2ccc(N)c(I)c2)NC(=O)CN2CCN(CC(=O)O)CCN(CC(=O)O)CCN(CC(=O)O)CC2)CSSC[C@@H](C(=O)N[C@H](C(N)=O)[C@@H](C)O)NC1=O [[^68Ga]Ga-DOTA-ST8950, metal not drawn]
tissue uptake at 1 h [5, 16]: 2.5 ± 0.2 %ID/g | tissue uptake at 1 h [5, 17]: 6.2 ± 0.6 %ID/g | tissue uptake at 1 h ([5]; athymic Nude-Foxn1^nu/Foxn1^+, SST(-) tumor uptake): 1.4 ± 0.5 %ID/g | tissue uptake at 1 h [5, 18]: 7.4 ± 1.9 %ID/g | tissue uptake at 2 h [6, 19]: 4.3 ± 1 %ID/g | tissue uptake at 2 h [6, 20]: 0.8 ± 0.2 %ID/g | tissue uptake at 2 h [6, 21]: 2.4 ± 0.8 %ID/g | tissue uptake at 2 h [6, 22]: 0.8 ± 0.2 %ID/g | tissue uptake at 1 h [6, 16]: 2.4 ± 1.3 %ID/g | tissue uptake at 2 h [6, 16]: 2.7 ± 0.3 %ID/g | tissue uptake at 2 h [6, 23]: 14 ± 2 %ID/g | tissue uptake at 1 h [6, 17]: 6.4 ± 1.9 %ID/g | tissue uptake at 2 h [6, 17]: 7.3 ± 1.5 %ID/g | tissue uptake at 2 h [6, 24]: 3.5 ± 0.7 %ID/g | tissue uptake at 2 h [6, 25]: 0.6 ± 0.1 %ID/g | tissue uptake at 1 h [6, 26]: 8.5 ± 4.5 %ID/g | tissue uptake at 1 h [6, 27]: 8.5 ± 1.9 %ID/g | tissue uptake at 2 h [6, 27]: 7.8 ± 1.2 %ID/g | tissue uptake at 1 h [6, 28]: 26 ± 8 %ID/g | tissue uptake at 2 h [6, 28]: 32 ± 7 %ID/g | tissue uptake at 1 h [6, 29]: 15 ± 6 %ID/g | tissue uptake at 2 h [6, 29]: 14 ± 3 %ID/g | tissue uptake at 2 h [6, 30]: 8.4 ± 1.2 %ID/g | tissue uptake at 2 h [6, 18]: 8.6 ± 2.1 %ID/g | tissue uptake at 2 h [6, 31]: 1.5 ± 0.3 %ID/g

C[C@@H](O)[C@@H]1NC(=O)[C@H](CCCCN)NC(=O)[C@@H](Cc2c[nH]c3ccccc23)NC(=O)[C@H](Cc2cccc3ccccc23)NC(=O)[C@@H](NC(=O)[C@@H](Cc2ccccc2)NC(=O)CN2CCN(CC(=O)O)CCN(CC(=O)O)CCN(CC(=O)O)CC2)CSSC[C@@H](C(=O)N[C@H](CO)[C@@H](C)O)NC1=O [[^68Ga]Ga-DOTA-NOC, [^68Ga][Ga-DOTA^0,1-Nal^3]-octreotide, metal not drawn, reference compound]
tissue uptake at 1 h [6, 19]: 4.6 ± 1 %ID/g | tissue uptake at 1 h [6, 20]: 1.1 ± 0.4 %ID/g | tissue uptake at 1 h [6, 21]: 1.7 ± 0.8 %ID/g | tissue uptake at 1 h [6, 22]: 0.7 ± 0.2 %ID/g | tissue uptake at 1 h [6, 16]: 3.3 ± 0.7 %ID/g | tissue uptake at 1 h [6, 23]: 9.8 ± 3.2 %ID/g | tissue uptake at 1 h [6, 24]: 3.3 ± 1.4 %ID/g | tissue uptake at 1 h [6, 25]: 0.5 ± 0.2 %ID/g | tissue uptake at 1 h [6, 26]: 16 ± 3 %ID/g | tissue uptake at 1 h [6, 27]: 8.2 ± 2.8 %ID/g | tissue uptake at 1 h [6, 28]: 30 ± 8 %ID/g | tissue uptake at 1 h [6, 29]: 12 ± 5 %ID/g | tissue uptake at 1 h [6, 30]: 12 ± 2 %ID/g | tissue uptake at 1 h [6, 31]: 0.8 ± 0.2 %ID/g

CC(C)[C@@H]1NC(=O)[C@H](CCCCN)NC(=O)[C@@H](Cc2c[nH]c3ccccc23)NC(=O)[C@H](Cc2ccc(O)c(I)c2)NC(=O)[C@@H](NC(=O)[C@@H](Cc2ccc(N)c(I)c2)NC(=O)CN2CCN(CC(=O)O)CCN(CC(=O)O)CCN(CC(=O)O)CC2)CSSC[C@@H](C(=O)N[C@H](C(N)=O)[C@@H](C)O)NC1=O [[^67Ga]Ga-DOTA-ST8950, metal not drawn]
log D [7]: − 1.0 ± 0.1

C[C@@H](O)[C@@H]1NC(=O)[C@H](CCCCN)NC(=O)[C@@H](Cc2c[nH]c3ccccc23)NC(=O)[C@H](Cc2cccc3ccccc23)NC(=O)[C@@H](NC(=O)[C@@H](Cc2ccccc2)NC(=O)CN2CCN(CC(=O)O)CCN(CC(=O)O)CCN(CC(=O)O)CC2)CSSC[C@@H](C(=O)N[C@H](CO)[C@@H](C)O)NC1=O [[^67Ga]Ga-DOTA-NOC, metal not drawn]
log D [7]: − 1.6 ± 0.1

CC(C)[C@@H]1NC(=O)[C@H](CCCCN)NC(=O)[C@@H](Cc2c[nH]c3ccccc23)NC(=O)[C@H](Cc2ccc(O)cc2)NC(=O)[C@@H](NC(=O)[C@@H](Cc2ccc(N)cc2)NC(=O)CN2CCN(CC(=O)O)CCN(CC(=O)O)CCN(CC(=O)O)CC2)CSSC[C@@H](C(=O)N[C@H](C(N)=O)[C@@H](C)O)NC1=O [^natGa-DOTA-ST8951, metal not drawn]
EC50 [1]: 9.8 nM | IC50 [2]: 7.5 nM

[^68Ga][Ga-DOTA^0,Tyr^3,Thr^8]-octreotate [[^68Ga]Ga-DOTA-TATE]
IC50 [8]: 0.2 ± 0.04 nM | Blood values [9]: 0.4 ± 0.0 %IA/g | Liver uptake [9]: 0.4 ± 0.2 %IA/g

C[C@@H](O)[C@H](NC(=O)[C@@H]1CSSC[C@H](NC(=O)[C@@H](Cc2ccccc2)NC(=O)CN2CCN(CC(=O)O)CCN(CC(=O)O)CCN(CC(=O)O)CC2)C(=O)N[C@@H](Cc2ccc(O)cc2)C(=O)N[C@H](Cc2c[nH]c3ccccc23)C(=O)N[C@@H](CCCCN)C(=O)N[C@@H]([C@@H](C)O)C(=O)N1)C(=O)O [[^67Ga]Ga-DOTA-TATE, metal not drawn]
log D [7]: − 3.0 ± 0.1

[^68Ga][Ga-1,4,7,10-tetraazacyclododecane-1,4,7,10-tetraacetic acid^0,Tyr^3]-octreotide [[^68Ga]Ga-DOTA-TOC]
IC50 [10]: 73 ± 21 nM | IC50 [8]: 2.5 ± 0.5 nM

Pasireotide
EC50 [11]: 0.6 nM | IC50 [12]: 0.2 nM | IC50 [13]: 3.1 nM | EC50 [14]: 1.1 nM

C[C@@H](O)[C@@H]1NC(=O)[C@H](CCCCN)NC(=O)[C@@H](Cc2c[nH]c3ccccc23)NC(=O)[C@H](Cc2cccc3ccccc23)NC(=O)[C@@H](NC(=O)[C@@H](Cc2ccccc2)NC(=O)CN2CCN(CC(=O)O)CCN(CC(=O)O)CCN(CC(=O)O)CC2)CSSC[C@@H](C(=O)N[C@H](CO)[C@@H](C)O)NC1=O [^natGa-DOTA-NOC, metal not drawn, reference compound]
EC50 [1]: 0.59 nM | IC50 [2]: 0.7 nM | IC50 [15]: 3.4 nM | EC50 [4]: 3.3 nM
